Laboratory results taken from patent US20020157126A1 (published 2002).
Blank lines part the entries; values can stand above or below the molecule they belong to.

What was measured:
[1] = molecular target: T1, myostatin mature C-terminal dimer (purified from conditioned medium of CHO cells) (UniProt O08689 268-376, limits assumed, radio-iodinated (chloramine T method) when used as the labeled ligand); test: inhibition of labeled myostatin binding to Act RIIB-transfected COS-7 cells, 4 °C; reference is the Ki of follistatin
T1 construct: mature; also called GDF-8; mature C-terminal peptide
T1 sequence (looked up): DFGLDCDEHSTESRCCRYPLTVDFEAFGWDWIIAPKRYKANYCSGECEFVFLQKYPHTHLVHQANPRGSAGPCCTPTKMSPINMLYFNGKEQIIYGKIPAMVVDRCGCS

[2] = molecular target: GDF-8 receptor (cell surface binding proteins) on L6 myoblasts; test: receptor-ligand binding assay with I-125 labeled GDF-8 on myoblast cells
[3] = molecular target: T1, myostatin mature C-terminal dimer …; test: inhibition of labeled myostatin binding to Act RIIB-transfected COS-7 cells, 4 °C
Method: Receptor binding. Purified myostatin was radioiodinated using the chloramine T method (Frolik, C. A., Wakefield, L. M., Smith, D. M. & Sporn, M. B. (1984) J Biol Chem 259, 10995-11000). COS-7 cells grown in 6 or 12 well plates were transfected with 1-2 μg pCMV5 or pCMV5/receptor construct using lipofectamine (Gibco, Rockville, Md.). Crosslinking experiments were carried out 2 days post transfection as described (Franzén, P., ten Dijke, P., Ichijo, H., Yamashita, H., Schultz, P., Heldin, C.-H. & Miyazono, K. (1993) Cell 75, 681-692). For quantitative receptor binding assays, cell monolayers were washed twice with PBS containing 1 mg/ml BSA and incubated with labeled myostatin in the presence or absence of various concentrations of unlabeled myostatin, pro peptide, or follistatin at 4° C. Cells were then washed 3 times with the same buffer, lysed in 0.5N NaOH, and counted in a gamma counter. Specific binding was calculated as the difference in bound myostatin between cells transfected with Act RIIB and cells transfected with vector.
The effect of the pro peptide and follistatin in vitro was then studied. Both the myostatin pro peptide and follistatin were capable of blocking the binding of the C-terminal dimer to Act RIIB. […]

fold Ki relative to follistatin [1]: 50 fold
Molecule: myostatin prodomain peptide (purified from CHO cell conditioned medium, HPLC fractions 35-37) (from UniProt O08689 25-267)

Kd [2]: 0.37 nM
Molecule: recombinant human GDF-8 (rhGDF-8) homodimer (from UniProt O14793 267-374) (ligand)

Ki [3]: ~0.47 nM
B1: follistatin (other, UniProt P19883-2 30-317, looked up)
chain: GNCWLRQAKNGRCQVLYKTELSKEECCSTGRLSTSWTEEDVNDNTLFKWMIFNGGAPNCIPCKETCENVDCGPGKKCRMNKKNKPRCVCAPDCSNITWKGPVCGLDGKTYRNECALLKARCKEQPELEVQYQGRCKKTCRDVFCPGSSTCVVDQTNNAYCVTCNRICPEPASSEQYLCGNDGVTYSSACHLRKATCLLGRSIGLAYEGKCIKAKSCEDIQCTGGKKCLWDFKVGRGRCSLCDELCPDSKSDEPVCASDNATYASECAMKEAACSSGVLLEVKHSGSCN
